The subject of data set [1] is HeLa Kyoto. Briefly: thermal stability score vs G1/S (z-score of summed log2 fold changes over temperatures); higher = more thermally stable than in G1/S.
Data set [2] has as its system HeLa Kyoto. Kind of data set: solubility in G1/S (NP-40 vs SDS abundance) (log2 ratio); higher = more soluble. The settings on record: cell cycle stage: G1/S.
Data set [3] relates to HeLa Kyoto. Kind of data set: solubility change mitosis vs G1/S (difference of NP-40 vs SDS log2 ratios) (log2 ratio difference); higher = more soluble in mitosis.
Data set [4] relates to HeLa Kyoto. Kind of data set: melting temperature (median over replicates), in situ; higher = more thermally stable.
The mark [5] stands for this setting: cell cycle stage: early G1 (4.5 h after nocodazole release).
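Wherever melting temperature (median over replicates), in situ is given: HeLa Kyoto cells synchronized by double thymidine or nocodazole block, proteins quantified by TMT10plex mass spectrometry, three independent biological replicates.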
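Wherever solubility change mitosis vs G1/S (difference of NP-40 vs SDS log2 ratios) is given: synchronized HeLa Kyoto cells (double thymidine block for G1/S, nocodazole release for mitosis), protein amounts in NP-40 versus SDS lysates quantified by mass spectrometry, three biological replicates.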
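Wherever solubility in G1/S (NP-40 vs SDS abundance) is given: HeLa Kyoto cells arrested at G1/S by double thymidine block, proteins quantified by TMT10plex mass spectrometry in mild NP-40 versus SDS extracts, three biological replicates.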
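Wherever thermal stability score vs G1/S (z-score of summed log2 fold changes over temperatures) is given: synchronized HeLa Kyoto cells, proteins quantified by TMT10plex mass spectrometry, three biological replicates, mitosis taken 0.5 h after nocodazole release, G1/S directly after double thymidine block.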

As to “MSSSHFASRHRKDISTEMIRTKIAHRKSLSQKENRHKEYERNRHFGLKDVNIPTLEGRILVELDETSQGLVPEKTNVKPRAMKTILGDQRKQMLQKYKEEKQLQKLKEQREKAKRGIFKVGRYRPDMPCFLLSNQNAVKAEPKKAIPSSVRITRSKAKDQMEQTKIDNESDVRAIRPGPRQTSEKKVSDKEKKVVQPVMPTSLRMTRSATQAAKQVPRTVSSTTARKPVTRAANENEPEGKVPSKGRPAKNVETKPDKGISCKVDSEENTLNSQTNATSGMNPDGVLSKMENLPEINTAKIKGKNSFAPKDFMFQPLDGLKTYQVTPMTPRSANAFLTPSYTWTPLKTEVDESQATKEILAQKCKTYSTKTIQQDSNKLPCPLGPLTVWHEEHVLNKNEATTKNLNGLPIKEVPSLERNEGRIAQPHHGVPYFRNILQSETEKLTSHCFEWDRKLELDIPDDAKDLIRTAVGQTRLLMKERFKQFEGLVDDCEYKRGIKETTCTDLDGFWDMVSFQIEDVIHKFNNLIKLEESGWQVNNNMNHNMNKNVFRKKVVSGIASKPKQDDAGRIAARNRLAAIKNAMRERIRQEECAETAVSVIPKEVDKIVFDAGFFRVESPVKLFSGLSVSSEGPSQRLGTPKSVNKAVSQSRNEMGIPQQTTSPENAGPQNTKSEHVKKTLFLSIPESRSSIEDAQCPGLPDLIEENHVVNKTDLKVDCLSSERMSLPLLAGGVADDINTNKKEGISDVVEGMELNSSITSQDVLMSSPEKNTASQNSILEEGETKISQSELFDNKSLTTECHLLDSPGLNCSNPFTQLERRHQEHARHISFGGNLITFSPLQPGEF [DLGAP5]”, the thermal stability score in the data set on HeLa Kyoto [1] (setting [5]) came out at 0.319; with HeLa Kyoto [1] (cell cycle stage: mitosis) it was 1.63. Besides, the “solubility in G1/S (log2)” value in the data set with HeLa Kyoto [2] was found to be 0.097. In addition, in the data set on HeLa Kyoto [3], the “solubility change mitosis (log2)” value was -0.122. The melting temperature in the data set on HeLa Kyoto [4] (cell cycle stage: G1/S) amounted to 49.6 °C; with HeLa Kyoto [4] (cell cycle stage: mitosis), 49.5 °C.
Consider “MATRSPGVVISDDEPGYDLDLFCIPNHYAEDLERVFIPHGLIMDRTERLARDVMKEMGGHHIVALCVLKGGYKFFADLLDYIKALNRNSDRSIPMTVDFIRLKSYCNDQSTGDIKVIGGDDLSTLTGKNVLIVEDIIDTGKTMQTLLSLVRQYNPKMVKVASLLVKRTPRSVGYKPDFVGFEIPDKFVVGYALDYNEYFRDLNHVCVISETGKAKYKA [HPRT1]”, for which the thermal stability score in the data set with HeLa Kyoto [1] (setting [5]) was -0.74; with HeLa Kyoto [1] (cell cycle stage: mitosis), -3.12. Also, the “solubility in G1/S (log2)” value in the data set with HeLa Kyoto [2] worked out at 0.209. For the same sequence, the “solubility change mitosis (log2)” value in the data set with HeLa Kyoto [3] is -0.113. The results for the melting temperature with HeLa Kyoto [4] (cell cycle stage: G1/S) and in the data set with HeLa Kyoto [4] (cell cycle stage: mitosis) were 58.5 °C and 59.7 °C, respectively.
As to “MSGFSPELIDYLEGKISFEEFERRREERKTREKKSLQEKGKLSAEENPDDSEVPSSSGINSTKSQDKDVNEGETSDGVRKSVHKVFASMLGENEDDEEEEEEEEEEEEEEETPEQPTAGDVFVLEMVLNRETKKMMKEKRPRSKLPRALRGLMGEANIRFARGEREEAILMCMEIIRQAPLAYEPFSTLAMIYEDQGDMEKSLQFELIAAHLNPSDTEEWVRLAEMSLEQDNIKQAIFCYTKALKYEPTNVRYLWERSSLYEQMGDHKMAMDGYRRILNLLSPSDGERFMQLARDMAKSYYEANDVTSAINIIDEAFSKHQGLVSMEDVNIAAELYISNKQYDKALEIITDFSGIVLEKKTSEEGTSEENKAPENVTCTIPDGVPIDITVKLMVCLVHLNILEPLNPLLTTLVEQNPEDMGDLYLDVAEAFLDVGEYNSALPLLSALVCSERYNLAVVWLRHAECLKALGYMERAAESYGKVVDLAPLHLDARISLSTLQQQLGQPEKALEALEPMYDPDTLAQDANAAQQELKLLLHRSTLLFSQGKMYGYVDTLLTMLAMLLKVAMNRAQVCLISSSKSGERHLYLIKVSRDKISDSNDQESANCDAKAIFAVLTSVLTKDDWWNLLLKAIYSLCDLSRFQEAELLVDSSLEYYSFYDDRQKRKELEYFGLSAAILDKNFRKAYNYIRIMVMENVNKPQLWNIFNQVTMHSQDVRHHRFCLRLMLKNPENHALCVLNGHNAFVSGSFKHALGQYVQAFRTHPDEPLYSFCIGLTFIHMASQKYVLRRHALIVQGFSFLNRYLSLRGPCQESFYNLGRGLHQLGLIHLAIHYYQKALELPPLVVEGIELDQLDLRRDIAYNLSLIYQSSGNTGMAQTLLYTYCSI [GTF3C3]”, the thermal stability score with HeLa Kyoto [1] (setting [5]) is 2.95; in the data set on HeLa Kyoto [1] (cell cycle stage: mitosis), 5.2. The “solubility in G1/S (log2)” value in the data set with HeLa Kyoto [2] is -0.231. Moreover, the “solubility change mitosis (log2)” value in the data set with HeLa Kyoto [3] is -0.0144. Moreover, the melting temperature in the data set with HeLa Kyoto [4] (cell cycle stage: G1/S) came out at 45.9 °C; in the data set on HeLa Kyoto [4] (cell cycle stage: mitosis), 49.1 °C.
“MSISSDEVNFLVYRYLQESGFSHSAFTFGIESHISQSNINGALVPPAALISIIQKGLQYVEAEVSINEDGTLFDGRPIESLSLIDAVMPDVVQTRQQAYRDKLAQQQAAAAAAAAAAASQQGSAKNGENTANGEENGAHTIANNHTDMMEVDGDVEIPPNKAVVLRGHESEVFICAWNPVSDLLASGSGDSTARIWNLSENSTSGSTQLVLRHCIREGGQDVPSNKDVTSLDWNSEGTLLATGSYDGFARIWTKDGNLASTLGQHKGPIFALKWNKKGNFILSAGVDKTTIIWDAHTGEAKQQFPFHSAPALDVDWQSNNTFASCSTDMCIHVCKLGQDRPIKTFQGHTNEVNAIKWDPTGNLLASCSDDMTLKIWSMKQDNCVHDLQAHNKEIYTIKWSPTGPGTNNPNANLMLASASFDSTVRLWDVDRGICIHTLTKHQEPVYSVAFSPDGRYLASGSFDKCVHIWNTQTGALVHSYRGTGGIFEVCWNAAGDKVGASASDGSVCVLDLRK [TBL1XR1]”: the thermal stability score is -0.718 in the data set on HeLa Kyoto [1] (setting [5]) and 1.29 with HeLa Kyoto [1] (cell cycle stage: mitosis). In addition, the “solubility in G1/S (log2)” value in the data set on HeLa Kyoto [2] was -0.0567. The “solubility change mitosis (log2)” value with HeLa Kyoto [3] is -0.127. In addition, the melting temperature came out at 52.2 °C in the data set on HeLa Kyoto [4] (cell cycle stage: G1/S) and 53.6 °C with HeLa Kyoto [4] (cell cycle stage: mitosis).
In the case of “MAPAGCCCCCCFWGGAVAAAGAARRVLLLLLLGVLSAGLRPGALATEHYSPLSLLKQELQHRQQQEAPAGGGGCSPQSGDWGDQYSAECGESSFLNFHDSDCEPKGSSPCDSLLSLNTEKILSQAKSIAEQKRFPFATDNDSTNEELAIAYVLIGSGLYDEAIRHFSTMLQEEPDLVSAIYGRGIAYGKKGLHDIKNAELALFELSRVITLEPDRPEVFEQRAEILSPLGRINEAVNDLTKAIQLQPSARLYRHRGTLYFISEDYATAHEDFQQSLELNKNQPIAMLYKGLTFFHRGLLKEAIESFKEALKQKVDFIDAYKSLGQAYRELGNFEAATESFQKALLLNQNHVQTLQLRGMMLYHHGSLQEALKNFKRCLQLEPYNEVCQYMKGLSHVAMGQFYEGIKAQTKVMLNDPLPGQKASPEYLKVKYLREYSRYLHAHLDTPLTEYNIDVDLPGSFKDHWAKNLPFLIEDYEEQPGLQPHIKDVLHQNFESYKPEVQELICVADRLGSLMQYETPGFLPNKRIHRAMGLAALEVMQAVQRTWTNSKVRMNGKTRLMQWRDMFDIAVKWRRIADPDQPVLWLDQMPARSLSRGFNNHINLIRGQVINMRYLEYFEKILHFIKDRILVYHGANNPKGLLEVREALEKVHKVEDLLPIMKQFNTKTKDGFTVNTKVPSLKDQGKEYDGFTITITGDKVGNILFSVETQTTEERTQLYHAEIDALYKDLTAKGKVLILSSEFGEADAVCNLILSLVYYFYNLMPLSRGSSVIAYSVIVGALMASGKEVAGKIPKGKLVDFEAMTAPGSEAFSKVAKSWMNLKSISPSYKTLPSVSETFPTLRSMIEVLNTDSSPRCLKKL [TTC13]”, the thermal stability score in the data set on HeLa Kyoto [1] (setting [5]) is 1.53; in the data set with HeLa Kyoto [1] (cell cycle stage: mitosis) it was 0.195. The “solubility in G1/S (log2)” value with HeLa Kyoto [2] was found to be 0.165. Moreover, in the data set on HeLa Kyoto [3], the “solubility change mitosis (log2)” value was -0.163. Also, the melting temperature with HeLa Kyoto [4] (cell cycle stage: G1/S) came out at 52.7 °C; in the data set on HeLa Kyoto [4] (cell cycle stage: mitosis), 53.3 °C.
